# In patent publication US8344120B2, “Nucleic acid molecules encoding rage fusion proteins” (TransTech Pharma, Inc., priority 2006, dated 2013):
# B1: TTP-4000: four domain RAGE fusion protein: human RAGE N-terminal sequence (to position 251) linked to human IgG Fc (γ1) without hinge; SEQ ID NO: 34/56 (protein)
# chain: QNITARIGEPLVLKCKGAPKKPPQRLEWKLNTGRTEAWKVLSPQGGGPWDSVARVLPNGSLFLPAVGIQDEGIFRCQAMNRNGKETKSNYRVRVYQIPGKPEIVDSASELTAGVPNKVGTCVSEGSYPAGTLSWHLDGKPLVPNEKGVSVKEQTRRHPETGLFTLQSELMVTPARGGDPRPTFSCSFSPGLPRHRALRTAPIQPRVWEPVPLEEVQLVVEPEGGAVAPPSVFLFPPKPKDTLMISRTPEVTCVVVDVSHEDPEVKFNWYVDGVEVHNAKTKPREEQYNSTYRVVSVLTVLHQDWLNGKEYKCKVSNKALPAPIEKTISKAKGQPREPQVYTLPPSRDELTKNQVSLTCLVKGFYPSDIAVEWESNGQPENNYKTTPPVLDSDGSFFLYSKLTVDKSRWQQGNVFSCSVMHEALHNHYTQKSLSLSPGK
# Key:
# Fc receptor = Fc receptor activation: TNF-α secretion from THP-1 cells; assay type: cell-based
# From the text: Fc stimulation results in TNF-α secretion.
# [1] = Solubility of TTP-4000 in formulation buffers; assay type: physicochemical; conditions: citrate versus histidine buffers
# Description: Formulations containing sodium acetate, sodium citrate, sodium phosphate, sodium succinate, histidine, and sodium chloride were tested along with sucrose and mannitol. Various pH's between 5.5 and 7.0 were also evaluated.
# Based on the solubility of the RAGE fusion protein in formulations containing one or more of sodium citrate, histidine, sucrose, mannitol, and Tween 80 at a pH of 7.0 or less, formulations containing one or more of these buffers, lyoprotectants, or surfactant were selected for further study.
# animal model of stroke = assay: Animal model of stroke (ischemia/reperfusion); assay type: in vivo, mice; conditions: treated just prior to reperfusion
# Description: For example, the RAGE fusion proteins of the present invention may also be used to treat stroke. […] In this model, the […] of a mouse is ligated and then reperfused to form an infarct. To assess the efficacy of RAGE fusion proteins to treat or prevent stroke, mice were treated with sRAGE or TTP-4000 or control immunoglobulin just prior to reperfusion. […] TTP-4000 was also compared to sRAGE in a disease relevant animal model of stroke. In this model, the […] of a mouse was ligated for 1 hour followed by 23 hours of reperfusion at which point the mice were sacrificed and the area of the infarct in the brain was assessed. […] After the nylon suture had been in place for 1 hour, the animal was re-anesthetized, rectal temperature was recorded and the suture was removed and the incision closed. Infarct volume was determined by anesthetizing the animals with an intraperitoneal injection of sodium pentobarbital (50 mg/kg) and then removing the brains. […] The infarct area in each section was determined with a computer-assisted image analysis system, consisting of a Power Macintosh computer equipped with a Quick Capture frame grabber card, Hitachi CCD camera mounted on a camera stand. […] The images were captured and the total area of infarct was determined over the sections. […] Summing the infarct volumes of the sections calculated the total infarct volume. […]
# mouse model of AD = assay: APP transgenic mouse model of AD; assay type: in vivo, mice
# Description: Experiments were performed to evaluate whether TTP-4000 could affect amyloid formation and cognitive dysfunction in a mouse model of AD. The experiments utilized transgenic mice expressing the human Swedish mutant amyloid precursor protein (APP) under the control of the PDGF-B chain promoter. Over time, these mice generate high levels of the RAGE ligand, amyloid beta (Aβ).
# The APP mice (male) used in this experiment were designed by microinjection of the human APP gene (with the Swedish and London mutations) into mouse eggs under the control of the platelet-derived growth factor B (PDGF-B) chain gene promoter. The mice were generated on a C57BL/6 background and were developed by Molecular Therapeutics Inc. Animals were fed ad libitum and maintained by brother sister mating. The mice generated from this construct develop amyloid deposits starting at 6 months of age. Animals were aged for 6 months and then maintained for 90 days and sacrificed for amyloid quantification.
# APP transgenic mice were administered vehicle or TTP4000 every other day [qod (i.p.)] for 90 days starting at 6 months of age. At the end of the experiment, animals were sacrificed and examined for Aβ plaque burden in the brain (i.e., plaque number). A 6-month control APP group was used to determine the baseline of amyloid deposits. In addition, at the end of the study, the animals were subjected to behavioral (Morris water maze) analysis. The investigators were blinded to the study compounds. Samples were given to the mice at 0.25 ml/mouse/every other day.
# For histological examination, the animals were anesthetized with an intraperitoneal injection (IP) of sodium pentobarbital (50 mg/kg). The animals were transcardially perfused with 4° C., phosphate-buffered saline (PBS) followed by 4% paraformaldehyde. The brains were removed and placed in 4% paraformaldehyde over night. The brains were processed to paraffin and embedded. Ten serial 30-μm thick sections through the brain were obtained. Sections were subjected to primary antibody overnight at 4° C. (Aβ peptide antibody) in order to detect the amyloid deposits in the brain of the transgenic animals (Guo et al., J. Neurosci., 22:5900-5909 (2002)). Sections were washed in Tris-buffered saline (TBS) and secondary antibody was added and incubated for 1 hour at room temperature. After washing, the sections were incubated as instructed in the Vector ABC Elite kit (Vector Laboratories) and stained with […] (DAB). The reactions were stopped in water and cover-slipped after treatment with xylene. The amyloid area in each section was determined with a computer-assisted image analysis system, consisting of a Power Macintosh computer equipped with a Quick Capture frame grabber card, Hitachi CCD camera mounted on an Olympus microscope and camera stand. NIH Image Analysis Software, v. 1.55 was used. The images were captured and the total area of amyloid was determined over the ten sections. A single operator blinded to treatment status performed all measurements. Summing the amyloid volumes of the sections and dividing by the total number of sections was done to calculate the amyloid volume.
# For quantitative analysis, an enzyme-linked immunosorbent assay (ELISA) was used to measure the levels of human total Aβ, Aβtotal and Aβ1-42 in the brains of APP transgenic mice (Biosource International, Camarillo, Calif.). Aβtotal and Aβ1-42 were extracted from mouse brains by guanidine hydrochloride and quantified as described by the manufacturer. […]
# [2] = treated for 3 months, qod i.p., versus vehicle and human IgG1
molecule,measurement,setting,value
B1,stimulation of TNF-α release from cells,Fc receptor; conditions where human IgG stimulation of TNF-α release is detected,does not stimulate TNF-α release
same,TNF generated,"Fc receptor; well precoated with 10 ug/well heat aggregated protein, THP-1 cells, 24 hours",less than 2 ng/well
same,"solubility in formulations, in words",[1],may be more soluble in formulations containing histidine
same,reduction in infarct volume compared to sRAGE,animal model of stroke,significantly greater reduction in infarct volume
same,inflammatory cytokines IL-1 and TNF-α,mouse model of AD; data not shown,can reduce the inflammatory cytokines IL-1 and TNF-α
same,Aβ plaques in the brain,mouse model of AD; [2],fewer Aβ plaques
same,cognitive dysfunction (Morris water maze),mouse model of AD; [2],less cognitive dysfunction
